# B1: TNT70 (antibody, human IgG1, kappa, V domains shown)
# VH: QVQLLESGGGVVQPGGSLRLSCAASGFAFSIYDMNWVRQAPGKGLEWVSAISSGGGTTYYADSVKGRFTISRDNAKNSLYLQMNSLRAEDTAVYYCARHSGYGTHWGVLFAYWGRGTLVTVSS
# VL: DIQMTQSPSSLSASVGDRVTITCRASQDIHGYLNWYQQKPGKAPKLLIYYTSILHSGVPSRFSGSGSGTDFTLTISSLQPEDFATYFCQQGNTLPWTFGQGTKLEIKR
# B2: TNT79 (antibody, human IgG1, kappa, V domains shown)
# VH: EVQLVESGGGLVQPGGSLRLSCAASGFTFSSYEMNWVRQAPGKGLEWVSYISSSGSTIYYADSVKGRFTISRDNAKNSLYLQMNSLRAEDTAVYYCARHSGYGTHWGVLFAYWGRGTLVTVSS
# VL: DIQMTQSPSSLSASVGDRVTITCRASQSISSYLNWYQQKPGKAPKLLIYAASSLQSGVPSRFSGSGSGTDFTLTISSLQPEDFATYYCQQGNTLPWTFGQGTKLEIKR
# B3: TNT87 (antibody, human IgG1, kappa, V domains shown)
# VH: EVQLVESGGGLVQPGGSLRLSCAASGFTFSSYEMNWVRQAPGKGLEWVSYISSSGSTIYYADSVKGRFTISRDNAKNSLYLQMNSLRAEDTAVYYCARHSGYGTHWGVLFAYWGRGTLVTVSS
# VL: DIVMTQTPLSLSVTPGQPASISCRASQDIHGYLNWYQQKPGQSPQLLIYYTSILHSGVPDRFSGSGSGTDFTLKISRVEAEDVGVYFCQQGNTLPWTFGGGTKLEIKR
# B4: TNT74 (antibody, human IgG1, kappa, V domains shown)
# VH: QVQLLESGGGVVQPGGSLRLSCAASGFAFSIYDMNWVRQAPGKGLEWVSAISSGGGTTYYADSVKGRFTISRDNAKNSLYLQMNSLRAEDTAVYYCARHSGYGTHWGVLFAYWGRGTLVTVSS
# VL: DIQMTQSPSSVSASVGDRVTITCRASQDIHGYLAWYQQKPGKAPKLLIYYTSSLQSGVPSRFSGSGSGTDFTLTISSLQPEDFATYYCQQGNTLPWTFGQGTKLEIKR
# B5: TNT80 (antibody, human IgG1, kappa, V domains shown)
# VH: QVQLQESGPGLVKPSDTLSLTCTVSGFAFSIYDMSWIRQPPGKGLEWIAYISSGGGTTYYNPSLKSRVTISVDTSKNQFSLKLSSVTAADTAVYYCARHSGYGTHWGVLFAYWGRGTLVTVSS
# VL: DIQMTQSPSSLSASVGDRVTITCRASQSISSYLNWYQQKPGKAPKLLIYAASSLQSGVPSRFSGSGSGTDFTLTISSLQPEDFATYYCQQGNTLPWTFGQGTKLEIKR
# B6: TNT76 (antibody, human IgG1, kappa, V domains shown)
# VH: QVQLQESGPGLVKPSDTLSLTCTVSGFAFSIYDMSWIRQPPGKGLEWIAYISSGGGTTYYNPSLKSRVTISVDTSKNQFSLKLSSVTAADTAVYYCARHSGYGTHWGVLFAYWGRGTLVTVSS
# VL: DIQMTQSPSSVSASVGDRVTITCRASQDIHGYLAWYQQKPGKAPKLLIYYTSSLQSGVPSRFSGSGSGTDFTLTISSLQPEDFATYYCQQGNTLPWTFGQGTKLEIKR
# Experiments:
# [1] = biological target: T1, cynomolgus monkey CD22 on B cells of cynomolgus PBMCs (cynomolgus monkey); experiment: flow cytometry; Alexa Fluor 647-labelled antibody on CD20+ B cells of cynomolgus PBMCs
# T1 construct: whole, on cells; also called cynomolgus CD22; Cyno CD22
# Procedure: (§1) Binding of humanized anti-CD22 antibodies to human or cynomolgus PBMCs was measured by flow cytometry. Trima residuals were received from Vitalant and cynomolgus monkey whole blood were received from BioIVT. Both were diluted 1:4 with Phosphate Buffered Saline (PBS, Gibco). Diluted blood was split into two tubes and underplayed with 15 mL Ficoll-Paque (GE Healthcare). Tubes were centrifuged for 30 minutes at 400×g. PBMCs were collected from the interface, washed and resuspended in FACS buffer (PBS with 0.5% Bovine Serum Albumin (Gibco)). 100K PBMCs from human and cynomolgus monkey were plated in 96-well plates and pelleted by centrifugation for five minutes at 400×g and stained at 4° C. in 100 μl Fixable Viability Dye eFluor 780 (Thermo Fisher) diluted 1:4000 in PBS. Cells were centrifuged and stained at 4° C. in 100 μl FACS buffer for 30 minutes containing FcR Blocking Reagent (Miltenyi Biotec), anti-CD20 and Alexa Fluor 647 conjugated CD22 binding antibodies, which were labeled using Molecular Probes Alexa Fluor 647 Protein Labeling kit (Molecular Probes) according to manufacturer's protocol. Cells were centrifuged and washed twice in 200 μl FACS buffer and fixed in 100 μl 0.5% paraformaldehyde. Cells were analyzed on Attune NxT Flow Cytometer (Thermo Fisher), with subsequent data analysis by Flowjo 10.7 (Treestar). Dead cells were excluded by gating on the eFluor 780-negative population. CD20+ cells were gated to identify B cells and median fluorescent intensity for CD22 was determined.
# [2] = biological target: T2, human CD22 on B cells of human PBMCs (human, UniProt P20273 20-847); experiment: flow cytometry; Alexa Fluor 647-labelled antibody on CD20+ B cells of human PBMCs
# T2 construct: whole, on cells; also called CD22 on human B cells
# Procedure: as §1
# [3] = biological target: T3, human CD22 (d1 to d7 domain according to NP_001762.2) (human, UniProt P20273 20-687); experiment: SPR; summary table, column 'CD22 KD (nM)'
# T3 construct: domain: d1 to d7 domain; also called human CD22-gly; Siglec-2
# [4] = biological target: T3, human CD22 (d1 to d7 domain according …); experiment: SPR; mAb supernatant captured on protein A chip, human CD22 injected
# Procedure: Binding of humanized anti-CD22 antibodies to human CD22 was measured by surface plasmon resonance (SPR). For assessment of binding by SPR, biotinylated protein A (15 μg/mL) was immobilized to the surface of an NLC chip. 30 μL of mAb supernatant was added to 150 μL of PBS-T and captured over the protein A surface. Serial dilutions of human CD22-gly (300 nM, 3× dilution) were injected over the mAb-coated chips, and binding kinetics were determined. Chips were regenerated using 4:1 v/v of Pierce IgG elution butter/4M NaCl.
Binder,CD22 Median Fluorescent Intensity on CD20+ cells [1],CD22 Median Fluorescent Intensity on CD20+ cells [2],Kd [3],Kd [4]
B1,1290,1560,–,–
B2,349,1300,23 nM,–
B3,1370,1440,0.7 nM,–
B4,–,1310,16 nM,15.6 nM
B5,159,1210,–,–
B6,140,1190,–,–

# — patent publication US20220380768A1 (TALLAC THERAPEUTICS, published 2022)
